Data from paper PMC3083827.

Biological target: T1, Whn (FoxN1) DNA binding domain, WhnDBD (UniProt Q61575 271-367)
T1 sequence: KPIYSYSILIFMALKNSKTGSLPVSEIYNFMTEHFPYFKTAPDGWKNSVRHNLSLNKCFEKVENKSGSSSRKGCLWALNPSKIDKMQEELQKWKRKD
Assay: EMSA

B1: MUT (S1P with core CG to TA) (dsDNA)
DNA 1: CTCCTCCCTGCGCGAAGCGGAAGTGATACGAGGCGTAGCGGAAGTT
DNA 2: AACTTCCGCTACGCCTCGTATCACTTCCGCTTCGCGCAGGGAGGAG
binding result: no binding
